Target: T1, XPF R670S;ERCC1 wild type (hsERCC1) (Xenopus laevis;Homo sapiens?, UniProt A0A8J0PXV9;P07992 1-897;1-297, R670S|)
T1 sequence 1: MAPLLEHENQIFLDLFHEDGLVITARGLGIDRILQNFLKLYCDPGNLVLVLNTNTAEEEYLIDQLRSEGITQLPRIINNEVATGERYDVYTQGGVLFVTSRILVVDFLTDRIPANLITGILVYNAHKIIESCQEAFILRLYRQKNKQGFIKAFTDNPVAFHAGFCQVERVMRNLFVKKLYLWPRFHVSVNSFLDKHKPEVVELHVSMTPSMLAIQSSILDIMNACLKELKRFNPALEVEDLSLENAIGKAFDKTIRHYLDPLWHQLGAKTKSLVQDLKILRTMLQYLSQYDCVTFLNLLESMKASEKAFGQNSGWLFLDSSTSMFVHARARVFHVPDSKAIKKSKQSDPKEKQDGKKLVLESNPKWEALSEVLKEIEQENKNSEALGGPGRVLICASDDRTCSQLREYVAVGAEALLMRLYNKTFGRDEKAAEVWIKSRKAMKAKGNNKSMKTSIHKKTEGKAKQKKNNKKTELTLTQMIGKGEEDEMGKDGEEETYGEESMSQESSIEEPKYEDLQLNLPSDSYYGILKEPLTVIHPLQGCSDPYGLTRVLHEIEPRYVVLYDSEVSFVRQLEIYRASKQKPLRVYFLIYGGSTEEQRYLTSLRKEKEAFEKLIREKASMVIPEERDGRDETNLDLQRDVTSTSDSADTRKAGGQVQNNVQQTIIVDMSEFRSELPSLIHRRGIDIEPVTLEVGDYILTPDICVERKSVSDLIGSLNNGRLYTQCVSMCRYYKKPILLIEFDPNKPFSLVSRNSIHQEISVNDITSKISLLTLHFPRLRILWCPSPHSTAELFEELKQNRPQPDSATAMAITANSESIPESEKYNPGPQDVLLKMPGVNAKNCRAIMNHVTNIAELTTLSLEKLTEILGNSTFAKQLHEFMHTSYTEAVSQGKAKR
T1 sequence 2: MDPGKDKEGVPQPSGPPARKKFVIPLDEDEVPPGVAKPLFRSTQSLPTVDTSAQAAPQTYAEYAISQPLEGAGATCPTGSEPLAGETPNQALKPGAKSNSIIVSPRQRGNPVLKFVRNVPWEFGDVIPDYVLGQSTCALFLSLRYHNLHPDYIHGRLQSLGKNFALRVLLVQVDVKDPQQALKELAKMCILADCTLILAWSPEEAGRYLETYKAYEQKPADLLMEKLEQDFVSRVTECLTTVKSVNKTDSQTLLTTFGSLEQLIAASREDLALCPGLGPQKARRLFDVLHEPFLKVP
Assay: fluorescence anisotropy; 2 mM Ca2+; comparable to wild type; 25 mM Hepes pH 8.0, 15% glycerol, 0.1 mg/ml BSA, 2 mM CaCl2, 10 nM DNA, 1 h at room temperature
Conditions: protein: recombinant;recombinant; tags: FLAG;His; copies: 1;1; label: 5'-FAM on F1; three strands 1:1:1

B1: 3' flap DNA substrate (F1+F2+F3) (dsDNA)
DNA 1: CGCGATGCGGATCCAA
DNA 2: CCTAGACTTAAGAGGCCAGACTTGGATCCGCATCGC
DNA 3: GGCCTCTTAAGTCTAGG
- binding result: binds

Reference: paper PMC5510004, “Recruitment and positioning determine the specific role of the XPF‐ERCC1 endonuclease in interstrand crosslink repair”
